This is an account of results in patent publication US20260092093A1 (TJ BIOPHARMA SHANGHAI, published 2026).

The target in this assay is T1, recombinant hIL-18Rα extracellular domain (human, UniProt Q13478 22-329, biotin label (selection) or fluorescent probe (single-clone FACS), sites not given).
T1 construct: extracellular domain; also called hIL-18Rα ECD; hIL-18Rα-ECD
T1 sequence (looked up): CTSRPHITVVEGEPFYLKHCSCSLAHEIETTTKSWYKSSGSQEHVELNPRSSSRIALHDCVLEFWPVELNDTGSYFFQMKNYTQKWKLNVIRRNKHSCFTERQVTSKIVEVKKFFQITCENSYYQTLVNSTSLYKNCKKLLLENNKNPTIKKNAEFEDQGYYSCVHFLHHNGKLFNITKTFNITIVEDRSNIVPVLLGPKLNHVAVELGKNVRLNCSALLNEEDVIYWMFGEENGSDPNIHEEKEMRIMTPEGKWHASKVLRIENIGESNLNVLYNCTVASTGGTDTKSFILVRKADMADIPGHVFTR
The assay is described as follows: single-clone FACS, yeast display, 10 nM labelled hIL-18Rα ECD. As to the method:
Following the screens described in Example 2, single clone FACS analysis was performed to verify the binding of selected yeast cell surface-expressed IL-18 variant polypeptides from Round 4 and Round 5 to 10 nM hIL-18Rα-ECD. Briefly, each yeast clone at the same density was incubated with 10 nM IL-18Rα-ECD labeled by fluorescent probe, respectively, followed by washing step. Then the ratio of fluorescent positive IL-18Rα ECD binding yeasts in the population of each clone were analyzed.

B1: SEQ ID NO 36 (ligand)
chain: YFPKLRSKLSVIRNLNDQVLFIDQGNRPLFEDMTDSDCRDNAPRTIFIISMYKWSRPRGMAVTISVKCEKISTLSCENKIISFKEMNPPDSIKDTKSDIIFFQYSVPGHDNKMQFESSSYEGYFLACEKERDLFKLILKKEDELGDRSIMFTVQNED
For the molecule B1, the “% of fluorescence positive cells” value worked out at 88.5%.

B2: SEQ ID NO 48 (ligand)
chain: YFFKLKSKLSVIRNLNDQVLFIDQGNRPLFEDMTDSDCRDNAPRTIFIISMYKPSPPRGMAVTISVKCEKISTLSCENKIISFKEMNPPDTIKDTKSDIIFFQYSVPGHDNKMQFESSSYEGYFLACEKERDLFKLILKKEDELGDRSIMFTVQNED
Take B2: the “% of fluorescence positive cells” value came to 83.8%.

B3: SEQ ID NO 46 (ligand)
chain: YFPKLGSKLSVIRNLNDQVLFIDQGNRPLFEDMTDSDCRDNAPRTIFIISMYKHSDPRGMAVTISVKCEKISTLSCENKIISFKEMNPPDVIKDTKSDIIFFQMSVPGHDNKMQFESSSYEGYFLACEKERDLFKLILKKEDELGDRSIMFTVQNED
As to B3, the “% of fluorescence positive cells” value was 84.9%.

B4: SEQ ID NO 51 (ligand)
chain: YFPKLRSKLSVIRNLNDQVLFIDQGNRPLFEDMTDSDCRDNAPRTIFIISMYKWSAVRGMAVTISVKCEKISTLSCENKIISFKEMNPPDSIKDTKSDIIFFQSSVPGHDNKMQFESSSYEGYFLACEKERDLFKLILKKEDELGDRSIMFTVQNED
As for B4, the “% of fluorescence positive cells” value was found to be 83.1%.

B5: SEQ ID NO 47 (ligand)
chain: YFPKLRSKLSVIRNLNDQVLFIDQGNRPLFEDMTDSDCRDNAPRTIFIISMYKLSTVRGMAVTISVKCEKISTLSCENKIISFKEMNPPDGIKDTKSDIIFFQHSVPGHDNKMQFESSSYEGYFLACEKERDLFKLILKKEDELGDRSIMFTVQNED
For B5, the “% of fluorescence positive cells” value amounted to 84.7%.

B6: SEQ ID NO 67 (ligand)
chain: YFTKLRSKLSVIRNLNDQVLFIDQGNRPLFEDMTDSDCRDNAPRTIFIISMYKLSHLRGIAVTISVKCEKISTLSCENKIISFKEMNPPDAIKDTKSDIIFFQSSVPGHDNKMQFESSSYEGYFLACEKERDLFKLILKKEDELGDRSIMFTVQNED
B6: the “% of fluorescence positive cells” value was found to be 66.4%.

B7: SEQ ID NO 40 (ligand)
chain: YFPKLKSKLSVIRNLNDQVLFIDQGNRPLFEDMTDSDCRDNAPRTIFIISMYKLSGARGMAVTISVKCEKISTLSCENKIISFKEMNPPDVIKDTKSDIIFFQRSVPGHDNKMQFESSSYEGYFLACEKERDLFKLILKKEDELGDRSIMFTVQNED
With B7, the “% of fluorescence positive cells” value stood at 87.9%.

B8: SEQ ID NO 77 (ligand)
chain: YFPKLRSKLSVIRNLNDQVLFIDQGNRPLFEDMTDSDCRDNAPRTIFIISMYKHSYTRGMAVTISVKCEKISTLSCENKIISFKEMNPPDIIKDTKSDIIFFQYSVPGHDNKMQFESSSYEGYFLACEKERDLFKLILKKEDELGDRSIMFTVQNED
As for B8, the “% of fluorescence positive cells” value came out at 28.4%.

B9: SEQ ID NO 68 (ligand)
chain: YFPKLKSKLSVIRNLNDQVLFIDQGNRPLFEDMTDSDCRDNAPRTIFIISMYKWSPWRGMAVTISVKCEKISTLSCENKIISFKEMNPPDNIKDTKSDIIFFQTSVPGHDNKMQFESSSYEGYFLACEKERDLFKLILKKEDELGDRSIMFTVQNED
With B9, the “% of fluorescence positive cells” value was 60.9%.

B10: SEQ ID NO 70 (ligand)
chain: YFPKLRSKLSVIRNLNDQVLFIDQGNRPLFEDMTDSDCRDNAPRTIFIISMYKWSGGRGMAVTISVKCEKISTLSCENKIISFKEMNPPDAIKDTKSDIIFFQLSVPGHDNKMQFESSSYEGYFLACEKERDLFKLILKKEDELGDRSIMFTVQNED
For the molecule B10, the “% of fluorescence positive cells” value turned out to be 51.3%.

B11: SEQ ID NO 76 (ligand)
chain: YFPKLKSKLSVIRNLNDQVLFIDQGNRPLFEDMTDSDCRDNAPRTIFIISMYKWSWARGMAVTISVKCEKISTLSCENKIISFKEMNPPDLIKDTKSDIIFFQYSVPGHDNKMQFESSSYEGYFLACEKERDLFKLILKKEDELGDRSIMFTVQNED
As for B11, the “% of fluorescence positive cells” value was 29.7%.

B12: SEQ ID NO 45 (ligand)
chain: YFPKLRSKLSVIRNLNDQVLFIDQGNRPLFEDMTDSDCRDNAPRTIFIISMYKHSYGRGMAVTISVKCEKISTLSCENKIISFKEMNPPDAIKDTKSDIIFFQTSVPGHDNKMQFESSSYEGYFLACEKERDLFKLILKKEDELGDRSIMFTVQNED
Consider B12, for which the “% of fluorescence positive cells” value came to 86.1%.

B13: SEQ ID NO 60 (ligand)
chain: YFPKLKSKLSVIRNLNDQVLFIDQGNRPLFEDMTDSDCRDNAPRTIFIISMYKHSSTRGMAVTISVKCEKISTLSCENKIISFKEMNPPDVIKDTKSDIIFFQCSVPGHDNKMQFESSSYEGYFLACEKERDLFKLILKKEDELGDRSIMFTVQNED
As for B13, the “% of fluorescence positive cells” value was 76.5%.

B14: SEQ ID NO 53 (ligand)
chain: YFPKLRSKLSVIRNLNDQVLFIDQGNRPLFEDMTDSDCRDNAPRTIFIISMYKLSGWRGMAVTISVKCEKISTLSCENKIISFKEMNPPDVIKDTKSDIIFFQRSVPGHDNKMQFESSSYEGYFLACEKERDLFKLILKKEDELGDRSIMFTVQNED
Take B14: the “% of fluorescence positive cells” value stood at 82.4%.

B15: SEQ ID NO 63 (ligand)
chain: YFPKLQSKLSVIRNLNDQVLFIDQGNRPLFEDMTDSDCRDNAPRTIFIISMYKLSTPRGMAVTISVKCEKISTLSCENKIISFKEMNPPDAIKDTKSDIIFFQRSVPGHDNKMQFESSSYEGYFLACEKERDLFKLILKKEDELGDRSIMFTVQNED
With B15, the “% of fluorescence positive cells” value was found to be 72.6%.

B16: SEQ ID NO 61 (ligand)
chain: YFPKLKSKLSVIRNLNDQVLFIDQGNRPLFEDMTDSDCRDNAPRTIFIISMYKFSTERGMAVTISVKCEKISTLSCENKIISFKEMNPPDPIKDTKSDIIFFQRSVPGHDNKMQFESSSYEGYFLACEKERDLFKLILKKEDELGDRSIMFTVQNED
Regarding B16, the “% of fluorescence positive cells” value stood at 76.1%.

B17: SEQ ID NO 75 (ligand)
chain: YFPKLGSKLSVIRNLNDQVLFIDQGNRPLFEDMTDSDCRDNAPRTIFIISMYKHSSRRGMAVTISVKCEKISTLSCENKIISFKEMNPPDVIKDTKSDIIFFQNSVPGHDNKMQFESSSYEGYFLACEKERDLFKLILKKEDELGDRSIMFTVQNED
As for B17, the “% of fluorescence positive cells” value amounted to 30%.

B18: SEQ ID NO 42 (ligand)
chain: YFEKLRSKLSVIRNLNDQVLFIDQGNRPLFEDMTDSDCRDNAPRTIFIISMYKWSPDRGMAVTISVKCEKISTLSCENKIISFKEMNPPDVIKDTKSDIIFFQVSVPGHDNKMQFESSSYEGYFLACEKERDLFKLILKKEDELGDRSIMFTVQNED
Regarding B18, the “% of fluorescence positive cells” value stood at 87.2%.

B19: SEQ ID NO 69 (ligand)
chain: YFPKLVSKLSVIRNLNDQVLFIDQGNRPLFEDMTDSDCRDNAPRTIFIISMYKWSAIRGMAVTISVKCEKISTLSCENKIISFKEMNPPDVIKDTKSDIIFFQTSVPGHDNKMQFESSSYEGYFLACEKERDLFKLILKKEDELGDRSIMFTVQNED
For B19, the “% of fluorescence positive cells” value is 60.9%.

B20: SEQ ID NO 71 (ligand)
chain: YFPKLYSKLSVIRNLNDQVLFIDQGNRPLFEDMTDSDCRDNAPRTIFIISMYKHSTNRGMAVTISVKCEKISTLSCENKIISFKEMNPPDGIKDTKSDIIFFQRSVPGHDNKMQFESSSYEGYFLACEKERDLFKLILKKEDELGDRSIMFTVQNED
For B20, the “% of fluorescence positive cells” value amounted to 45.1%.

B21: SEQ ID NO 37 (ligand)
chain: YFPKLRSKLSVIRNLNDQVLFIDQGNRPLFEDMTDSDCRDNAPRTIFIISMYKGSGIRGMAVTISVKCEKISTLSCENKIISFKEMNPPDGIKDTKSDIIFFQRSVPGHDNKMQFESSSYEGYFLACEKERDLFKLILKKEDELGDRSIMFTVQNED
For the molecule B21, the “% of fluorescence positive cells” value came to 88.4%.

B22: SEQ ID NO 52 (ligand)
chain: YFWKLKSKLSVIRNLNDQVLFIDQGNRPLFEDMTDSDCRDNAPRTIFIISMYKPSSHRGMAVTISVKCEKISTLSCENKIISFKEMNPPDVIKDTKSDIIFFQLSVPGHDNKMQFESSSYEGYFLACEKERDLFKLILKKEDELGDRSIMFTVQNED
B22: the “% of fluorescence positive cells” value was determined as 83%.

B23: SEQ ID NO 64 (ligand)
chain: YFPKLNSKLSVIRNLNDQVLFIDQGNRPLFEDMTDSDCRDNAPRTIFIISMYKVPTARGMAVTISVKCEKISTLSCENKIISFKEMNPPDAIKDTKSDIIFFQRSVPGHDNKMQFESSSYEGYFLACEKERDLFKLILKKEDELGDRSIMFTVQNED
As to B23, the “% of fluorescence positive cells” value stood at 70.8%.

B24: SEQ ID NO 78 (ligand)
chain: YFKKLPSKLSVIHNLNDQVLFIDQGNRPLFEDMTDSDCRDNAPRTIFIISMYKLSSERGMAVTISVKCEKISTLSCENKIISFKEMNPPDNIKDTKSDIIFFQRSVPGHDNKMQFESSSYEGYFLACEKERDLFKLILKKEDELGDRSIMFTVQNED
Take B24: the “% of fluorescence positive cells” value came out at 27.8%.

B25: SEQ ID NO 57 (ligand)
chain: YFPKLKSKLSVIRNLNDQVLFIDQGNRPLFEDMTDSDCRDNAPRTIFIISMYKHSRARGMAVTISVKCEKISTLSCENKIISFKEMNPPDSIKDTKSDIIFFQTSVPGHDNKMQFESSSYEGYFLACEKERDLFKLILKKEDELGDRSIMFTVQNED
Consider B25, for which the “% of fluorescence positive cells” value worked out at 79%.
